Source: the supplement of paper PMC10567573

B1: PBXIP1 (parent)
chain: EKQKQPRWREGTKDSHDPLPSWAE

Variants of: B1
Assay: protein stability index of a GFP-peptide fusion (GPS, HEK-293T) (PSI 1-6); higher = more stable
Settings: c terminus: a fixed tail appended
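Note: lentivirally expressed fusions sorted by FACS into six bins by GFP to DsRed ratio, PSI derived from sequencing read proportions per bin multiplied by bin number.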

Protein stability index of substitutions, site by site:
H16: K 1.93 | N 2.85 | W 1.37 | M 1.07 | P 2.26 | Y 1.39 | E 3.06 | C 3.68 | V 1.69 | I 1.98 | D 2.05 | S 2.56
W8: R 2.54 | N 3.03 | H 2.41 | I 2.06 | V 2.05 | Y 1.94 | K 2.46 | G 2.04 | M 2 | F 1.88 | T 1.58
L19: R 2.86 | T 2.27 | P 1.73 | C 1.51 | G 2.56 | E 3.44 | D 1.99 | S 1.77 | H 2.63 | K 1.68 | N 2.49
P18: V 3.04 | Q 1.96 | M 1.88 | S 1.29 | Y 1.95 | T 1.87 | N 1.92 | H 1.75 | D 1.75
D17: N 1.97 | S 1.86 | C 3.64 | T 1.43 | P 1.94 | I 1.48 | K 1.24 | Y 1.5 | A 1.39 | E 1.39 | L 1.58 | V 3.08 | R 2.27
W22: H 5.32 | E 5.99 | A 5.8 | I 5.01 | D 5.82 | K 5.42
K13: C 1.28 | V 1.52 | A 2.15 | H 2.96 | D 2.18 | Q 1.29 | N 2.35
R9: C 1.39 | L 2.48 | Q 1.34 | P 1.84 | H 1.04 | A 1.79 | I 1.89 | D 1.76 | T 2.17 | K 2.32 | W 1.66 | S 1.39 | M 2.35 | E 3.15
S21: K 1.75 | M 2.6 | W 4.58 | L 2 | Y 3.67 | Q 3.03 | I 2.56 | D 4.6 | F 2.54 | E 3.19 | T 2.62 | V 2.68 | G 2.93 | N 2.01 | H 3.27
P20: R 2 | H 2.22 | D 1.79 | K 2.66 | W 1.44 | F 1.52 | M 1.31 | N 1.88 | A 2.13 | Q 2.45 | I 2.48 | Y 1.75
T12: L 2.31 | M 2.69 | I 2.34 | F 1.33 | E 1.61 | H 2.89 | R 2.71 | K 2.38 | Y 1.01 | A 2
G11: D 2.02 | P 1.77 | M 2.78 | E 1.15 | F 2.88 | I 1.69 | R 1.46 | Y 1.98 | L 2.31 | S 2.61 | H 3.13 | Q 1.68
E10: T 3.55 | K 2.34 | W 1.53 | R 2.2 | L 1.96 | Q 1.83 | S 1.18 | G 1.05 | A 1.14 | I 2.1 | F 2.27 | D 3 | C 2.32
D14: S 3.28 | P 1.83 | T 1.8 | Q 1.87 | C 1.1 | K 2.66 | M 1.96 | F 1.46 | Y 2.35
S15: N 1.63 | T 1.96 | Q 1.8 | W 1.54 | E 1.37 | D 1.84 | C 2.95 | P 1.26 | M 3.08 | K 2.02 | G 1.68 | A 2.65 | L 1.27
